Molecular target: the molecule itself
Assay: single-molecule photobleaching step counting

B1: HSV-1 origin binding protein UL9 labelled at its C-terminus with Atto647N through a ybbR-tag (enzyme, Herpes simplex virus type 1, UniProt P10193 1-851, looked up)
chain: MPFVGGAESGDPLGAGRPIGDDECEQYTSSVSLARMLYGGDLAEWVPRVHPKTTIERQQHGPVTFPNASAPTARCVTVVRAPMGSGKTTALIRWLREAIHSPDTSVLVVSCRRSFTQTLATRFAESGLVDFVTYFSSTNYIMNDRPFHRLIVQVESLHRVGPNLLNNYDVLVLDEVMSTLGQLYSPTMQQLGRVDALMLRLLRICPRIIAMDATANAQLVDFLCGLRGEKNVHVVVGEYAMPGFSARRCLFLPRLGTELLQAALRPPGPPSGPSPDASPEARGATFFGELEARLGGGDNICIFSSTVSFAEIVARFCRQFTDRVLLLHSLTPLGDVTTWGQYRVVIYTTVVTVGLSFDPLHFDGMFAYVKPMNYGPDMVSVYQSLGRVRTLRKGELLIYMDGSGARSEPVFTPMLLNHVVSSCGQWPAQFSQVTNLLCRRFKGRCDASACDTSLGRGSRIYNKFRYKHYFERCTLACLSDSLNILHMLLTLNCIRVRFWGHDDTLTPKDFCLFLRGVHFDALRAQRDLRELRCRDPEASLPAQAAETEEVGLFVEKYLRSDVAPAEIVALMRNLNSLMGRTRFIYLALLEACLRVPMATRSSAIFRRIYDHYATGVIPTINVTGELELVALPPTLNVTPVWELLCLCSTMAARLHWDSAAGGSGRTFGPDDVLDLLTPHYDRYMQLVFELGHCNVTDGLLLSEEAVKRVADALSGCPPRGSVSETDHAVALFKIIWGELFGVQMAKSTQTFPGAGRVKNLTKQTIVGLLDAHHIDHSACRTHRQLYALLMAHKREFAGARFKLRVPAWGRCLRTHSSSANPNADIILEAALSELPTEAWPMMQGAVNFSTL
modifications: Atto647N fluorophore on the C-terminus through a ybbR-tag
- stoichiometry N: 2

— article doi:10.1101/2024.10.30.621104 (bioRxiv, 2024)
